Our source for the stoichiometry N values is PMC6145873.

Test [1] deals with Thermus thermophilus PilF type IVa pilus assembly ATPase, full length (Thermus thermophilus HB8). Kind of test: cryo-EM structure; single particle reconstructions of full length TtPilF as apoprotein and with 1 mM AMPPNP; ~200 μg/ml; 25 mM HEPES pH 7.5, 150 mM NaCl, 5 mM MgCl2, 5% glycerol; C2 symmetry applied.
Test [2] deals with TtPilFc, C-terminal tryptic fragment of Thermus thermophilus PilF (N2, CTD and Zn-binding domains) (Thermus thermophilus HB8). Kind of test: crystal structure; TtPilFc with bound ATP/Mg2+, space group C2, 2.44 Å; crystals at 20 °C in 0.2 M sodium bromide, 0.1 M Bis-Tris propane pH 6.5, 20% PEG 3350.

As usually defined, the stoichiometry N is the number of molecules, sites or subunits per partner or assembly. “Thermus thermophilus PilF type IVa pilus assembly ATPase, full length (enzyme)”: the stoichiometry N in test [1] turned out to be 6.

Substance “TtPilFc, C-terminal tryptic fragment of Thermus thermophilus PilF (N2, CTD and Zn-binding domains) (domain or fragment)” came in with a stoichiometry N in test [2] of 6.
